The results in this text go back to the supplement of paper PMC9112550, “Optimization of the antimicrobial peptide Bac7 by deep mutational scanning” (BMC Biology, 2022).

The data set concerns Escherichia coli TOP10. As to the kind of experiment: shrunken log2 fold change of peptide-encoding DNA abundance (4.5 h post-induction vs induction); higher = less antimicrobial activity (less host growth inhibition). The note with it: time post-induction: 4.5 h; library: site-saturation at positions 5, 18, 19, 20.
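Also: peptides expressed intracellularly from a pBAD plasmid library in pooled LB shake-flask culture, induced with 0.3% L-arabinose, DNA abundance read by NGS, three biological replicates, DESeq2 with apeglm shrinkage.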

Take RRIRQRPPRLPRPRPRPFGLPRP: the “shrunken log2 fold change” value was -0.131.

Regarding RRIRWRPPRLPRPRPRPSANPRP, the “shrunken log2 fold change” value is 0.559.

For the sequence RRIRARPPRLPRPRPRPAQVPRP, the “shrunken log2 fold change” value turned out to be 0.617.

On to RRIRTRPPRLPRPRPRPVNHPRP, for which the “shrunken log2 fold change” value was -0.0862.

On to RRIRMRPPRLPRPRPRPTTTPRP, for which the “shrunken log2 fold change” value was found to be 0.276.

Take RRIRRRPPRLPRPRPRPPNAPRP: the “shrunken log2 fold change” value amounted to 1.06.

For RRIRRRPPRLPRPRPRPTLPPRP, the “shrunken log2 fold change” value is 0.482.

For RRIRERPPRLPRPRPRPVQAPRP, the “shrunken log2 fold change” value came to 0.014.

As for RRIRWRPPRLPRPRPRPYTHPRP, the “shrunken log2 fold change” value was -0.536.

Regarding RRIRLRPPRLPRPRPRPCCIPRP, the “shrunken log2 fold change” value was -0.0547.

For RRIRFRPPRLPRPRPRPYHEPRP, the “shrunken log2 fold change” value is -0.26.

For RRIRYRPPRLPRPRPRPEKIPRP, the “shrunken log2 fold change” value was 0.0147.

Regarding RRIRGRPPRLPRPRPRPKWEPRP, the “shrunken log2 fold change” value came to 1.13.

Turning to RRIRIRPPRLPRPRPRPCIEPRP, the “shrunken log2 fold change” value was -0.112.

As to RRIRPRPPRLPRPRPRPRANPRP, the “shrunken log2 fold change” value was 0.286.

In the case of RRIRIRPPRLPRPRPRPLDWPRP, the “shrunken log2 fold change” value was -0.418.

Take RRIRKRPPRLPRPRPRPNHLPRP: the “shrunken log2 fold change” value is -0.0502.

On to RRIRLRPPRLPRPRPRPDAAPRP, for which the “shrunken log2 fold change” value was 2.66.

In the case of RRIRPRPPRLPRPRPRPRRMPRP, the “shrunken log2 fold change” value amounted to 0.297.

RRIRIRPPRLPRPRPRPWQCPRP: the “shrunken log2 fold change” value was 0.034.

As for RRIRLRPPRLPRPRPRPRLQPRP, the “shrunken log2 fold change” value worked out at 0.15.

Take RRIRTRPPRLPRPRPRPGGKPRP: the “shrunken log2 fold change” value is -0.215.

Turning to RRIRYRPPRLPRPRPRPISWPRP, the “shrunken log2 fold change” value is -0.0102.

For RRIRHRPPRLPRPRPRPQPLPRP, the “shrunken log2 fold change” value is -0.0863.

For the sequence RRIRMRPPRLPRPRPRPHVHPRP, the “shrunken log2 fold change” value is 0.0308.

For RRIRARPPRLPRPRPRPMTGPRP, the “shrunken log2 fold change” value amounted to 0.0159.

On to RRIRDRPPRLPRPRPRPWRCPRP, for which the “shrunken log2 fold change” value came to 0.26.

Consider RRIRKRPPRLPRPRPRPMNWPRP, for which the “shrunken log2 fold change” value was 0.134.

Consider RRIRCRPPRLPRPRPRPRIRPRP, for which the “shrunken log2 fold change” value was found to be 0.0722.

As for RRIRERPPRLPRPRPRPQERPRP, the “shrunken log2 fold change” value amounted to 0.061.

With RRIRQRPPRLPRPRPRPLFYPRP, the “shrunken log2 fold change” value was -0.251.

RRIRVRPPRLPRPRPRPMFTPRP: the “shrunken log2 fold change” value is -0.0798.

For the sequence RRIRPRPPRLPRPRPRPDRPPRP, the “shrunken log2 fold change” value is -0.0807.

For RRIRFRPPRLPRPRPRPSAQPRP, the “shrunken log2 fold change” value came out at 0.24.

With RRIRNRPPRLPRPRPRPLWSPRP, the “shrunken log2 fold change” value was -0.0388.

As to RRIRVRPPRLPRPRPRPSIMPRP, the “shrunken log2 fold change” value was -0.451.

With RRIRCRPPRLPRPRPRPVWCPRP, the “shrunken log2 fold change” value is -0.269.

On to RRIRLRPPRLPRPRPRPYRLPRP, for which the “shrunken log2 fold change” value was -0.0305.

For the sequence RRIRKRPPRLPRPRPRPLFLPRP, the “shrunken log2 fold change” value stood at 0.115.

Turning to RRIRERPPRLPRPRPRPCSPPRP, the “shrunken log2 fold change” value is -0.286.

For RRIRARPPRLPRPRPRPNITPRP, the “shrunken log2 fold change” value was -0.0796.

For the sequence RRIRLRPPRLPRPRPRPSLWPRP, the “shrunken log2 fold change” value was 0.062.

Take RRIRERPPRLPRPRPRPSLDPRP: the “shrunken log2 fold change” value is -0.35.

As for RRIRLRPPRLPRPRPRPPCNPRP, the “shrunken log2 fold change” value was -0.126.

On to RRIRLRPPRLPRPRPRPRWWPRP, for which the “shrunken log2 fold change” value worked out at 0.13.

Turning to RRIRFRPPRLPRPRPRPMQEPRP, the “shrunken log2 fold change” value came to 0.0233.

For the sequence RRIRQRPPRLPRPRPRPTLRPRP, the “shrunken log2 fold change” value is -0.0246.

In the case of RRIRARPPRLPRPRPRPVKYPRP, the “shrunken log2 fold change” value was -0.166.

RRIRLRPPRLPRPRPRPKNCPRP: the “shrunken log2 fold change” value was -0.5.

With RRIRWRPPRLPRPRPRPNGTPRP, the “shrunken log2 fold change” value is 1.67.

Consider RRIRWRPPRLPRPRPRPAQAPRP, for which the “shrunken log2 fold change” value was determined as 0.237.

For RRIRYRPPRLPRPRPRPESMPRP, the “shrunken log2 fold change” value was -0.267.

RRIRSRPPRLPRPRPRPRIWPRP: the “shrunken log2 fold change” value came out at 0.183.

In the case of RRIRFRPPRLPRPRPRPSNNPRP, the “shrunken log2 fold change” value is -0.702.

For RRIRTRPPRLPRPRPRPDRRPRP, the “shrunken log2 fold change” value turned out to be 0.0647.

For RRIRKRPPRLPRPRPRPICRPRP, the “shrunken log2 fold change” value was 0.0069.

For the sequence RRIRRRPPRLPRPRPRPASTPRP, the “shrunken log2 fold change” value is -0.0241.

Consider RRIRKRPPRLPRPRPRPQKNPRP, for which the “shrunken log2 fold change” value came out at 0.319.

As to RRIRVRPPRLPRPRPRPGQNPRP, the “shrunken log2 fold change” value was -0.104.

Regarding RRIRIRPPRLPRPRPRPFCNPRP, the “shrunken log2 fold change” value is -0.553.

For the sequence RRIRTRPPRLPRPRPRPYMIPRP, the “shrunken log2 fold change” value is -0.478.

Consider RRIRMRPPRLPRPRPRPCRIPRP, for which the “shrunken log2 fold change” value is -0.0476.

As for RRIRWRPPRLPRPRPRPHIAPRP, the “shrunken log2 fold change” value is 0.0545.

As for RRIRDRPPRLPRPRPRPVNWPRP, the “shrunken log2 fold change” value is 0.188.

As for RRIRCRPPRLPRPRPRPIKYPRP, the “shrunken log2 fold change” value is -0.608.

In the case of RRIRTRPPRLPRPRPRPEGFPRP, the “shrunken log2 fold change” value was -0.041.

In the case of RRIRVRPPRLPRPRPRPNCPPRP, the “shrunken log2 fold change” value is -0.0515.

Consider RRIRLRPPRLPRPRPRPMFVPRP, for which the “shrunken log2 fold change” value was -0.354.

RRIRQRPPRLPRPRPRPRTTPRP: the “shrunken log2 fold change” value is 0.218.

For RRIRFRPPRLPRPRPRPPIAPRP, the “shrunken log2 fold change” value came to 0.31.

Take RRIRNRPPRLPRPRPRPDAGPRP: the “shrunken log2 fold change” value was 0.391.

Take RRIRKRPPRLPRPRPRPVWPPRP: the “shrunken log2 fold change” value was determined as 0.699.

Consider RRIRRRPPRLPRPRPRPDTKPRP, for which the “shrunken log2 fold change” value was -0.139.

With RRIRFRPPRLPRPRPRPGQYPRP, the “shrunken log2 fold change” value was -0.0815.

For the sequence RRIRPRPPRLPRPRPRPIFYPRP, the “shrunken log2 fold change” value was -0.102.

For RRIRTRPPRLPRPRPRPNIPPRP, the “shrunken log2 fold change” value was -0.593.

For the sequence RRIRYRPPRLPRPRPRPHTQPRP, the “shrunken log2 fold change” value was -1.1.

Take RRIRFRPPRLPRPRPRPTCLPRP: the “shrunken log2 fold change” value was -0.249.

As to RRIRLRPPRLPRPRPRPIFWPRP, the “shrunken log2 fold change” value is -0.189.

Consider RRIRYRPPRLPRPRPRPNAHPRP, for which the “shrunken log2 fold change” value is -0.395.

With RRIRHRPPRLPRPRPRPNHTPRP, the “shrunken log2 fold change” value was -1.04.

Consider RRIRQRPPRLPRPRPRPTMSPRP, for which the “shrunken log2 fold change” value amounted to 0.0272.

Consider RRIRERPPRLPRPRPRPCCLPRP, for which the “shrunken log2 fold change” value was -0.57.

Consider RRIRTRPPRLPRPRPRPCQIPRP, for which the “shrunken log2 fold change” value is 0.0623.

As for RRIRPRPPRLPRPRPRPHQYPRP, the “shrunken log2 fold change” value is -0.623.

On to RRIRKRPPRLPRPRPRPCRVPRP, for which the “shrunken log2 fold change” value turned out to be 0.0931.

As for RRIRVRPPRLPRPRPRPMCDPRP, the “shrunken log2 fold change” value was -0.0462.

Regarding RRIRVRPPRLPRPRPRPILRPRP, the “shrunken log2 fold change” value amounted to 0.0599.

With RRIRPRPPRLPRPRPRPQRNPRP, the “shrunken log2 fold change” value is 0.147.

Turning to RRIRGRPPRLPRPRPRPQRTPRP, the “shrunken log2 fold change” value was 0.853.

In the case of RRIRDRPPRLPRPRPRPTCKPRP, the “shrunken log2 fold change” value came out at 0.0657.

With RRIRQRPPRLPRPRPRPLTVPRP, the “shrunken log2 fold change” value worked out at 0.0325.

RRIRTRPPRLPRPRPRPPATPRP: the “shrunken log2 fold change” value amounted to 0.213.

Turning to RRIRCRPPRLPRPRPRPGQGPRP, the “shrunken log2 fold change” value worked out at 0.43.

In the case of RRIRWRPPRLPRPRPRPNMEPRP, the “shrunken log2 fold change” value came out at 0.0936.

As to RRIRQRPPRLPRPRPRPGDAPRP, the “shrunken log2 fold change” value stood at 1.65.

For the sequence RRIRHRPPRLPRPRPRPQTCPRP, the “shrunken log2 fold change” value is -0.653.

Take RRIRDRPPRLPRPRPRPEAKPRP: the “shrunken log2 fold change” value was 2.4.
